For 6 molecules, Kd, koff and kon results are on record in patent US20260167728A1 (published 2026).

In general, Kd refers to a measure of binding affinity in units of concentration. The koff is a measure of how fast the partners let go of each other. The term kon denotes a measure of how fast the partners come together.

Residue numbers refer to the chain shown, from its start.

In test [1] the target is T1, cynomolgus monkey EGFR (cynomolgus monkey, UniProt A0A2K5WK39 25-645).
T1 construct: also called Cyno EGFR
Kind of test: SPR Biacore 37 C. On the technique in general: In SPR one partner is held on a chip, and binding of the other changes the refractive index at the surface.

The target of test [2] is human CD3 (human, UniProt P07766 23-126). In words: SPR Biacore 37 C.
Chain of human CD3 (P07766 23-126 limits assumed): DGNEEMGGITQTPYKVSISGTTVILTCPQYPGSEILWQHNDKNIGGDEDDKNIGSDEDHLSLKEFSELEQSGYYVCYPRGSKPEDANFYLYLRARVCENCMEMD
The target in test [3] is T2, cynomolgus monkey CD3 (cynomolgus monkey, UniProt Q95LI5 22-117).
T2 construct: also called Cyno CD3
T2 sequence: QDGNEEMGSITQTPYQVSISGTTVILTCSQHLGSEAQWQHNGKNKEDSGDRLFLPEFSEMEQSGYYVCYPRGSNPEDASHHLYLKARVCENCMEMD
Kind of test: SPR Biacore 37 C.

Test [4] deals with T3, human EGFR (human, UniProt P00533 25-645, limits assumed).
T3 construct: on HT-29 cells in the cytotoxicity assay; also called epidermal growth factor receptor
Kind of test: SPR Biacore 37 C.

Test [5] has as its target T3, human EGFR. In words: BLI, room temperature. The procedure: Each construct was expressed in small-scale and purified. Thermal stability was determined by Differential Scanning Fluorimetry. Melting temperature (Tₘ) determined by Differential Scanning Fluorimetry experiments described herein were performed either in duplicate or triplicate using GloMelt™ dye and QuantStudio5™. GloMelt™ dye undergoes fluorescence enhancement upon binding to hydrophobic regions of denatured proteins. Therefore, the dye can be used to detect protein unfolding or measure thermal stability. GloMelt™ dye is optimized for detection in the SYBR® Green channel of qPCR instruments. The Differential Scanning Fluorimetry experiments were performed in 96-well plates with 10 μg protein/reaction (equal to 0.5 mg/mL final protein concentration), reaction buffer, and GloMelt™ 10× dye according to manufacturer's instructions. Fluorescence of 96-well plates was read and melt curve plots were generated in the QuantStudio5™ qPCR system. Binding affinity was analyzed with bio-layer interferometry at room temperature with human EGFR as the antigen.
In general terms: In BLI a coated tip is dipped into the sample, and binding shifts an interference pattern.

Test [6] has as its target T4, huCD3e-mFc (human, UniProt P07766 23-126).
T4 construct: not shown: mFc, not described
Kind of test: Pool 3 screen.

In test [7] the target is T4, huCD3e-mFc. In words: Pool 3 screen, R3.

T4 sequence (P07766 23-126): as the sequence (P07766 23-126 limits assumed) above

B1: AMX-525 (1x-N) (bispecific antibody)
chain: ASSATPESGPGTSTEPSEGSAPGTSESATPESGPGSGPGTSESATPGTSESATPESGPGSEPATSGSETPGTSESATPESGPGTSTEPSEGSAPGSPAGSPTSTEEGTSESATPESGPGSEPATSGSETPGTSESATPESGPGSPAGSPTSTEEGSPAGSPTSTEEGTSTEPSEGSAPGTSESATPESGPGTSESATPESGPGTSESATPESGPGSEPATSGSETPGSEPATSGSETPGSPAGSPTSTEEGTSTEPSEGSAPGTSTEPSEGSAPGSEPATSGSETPGTSESATPEAGRSASHTPAGLTGPGTSESATPESDIQMTQSPSSLSASVGDRVTITCQASQDISNYLNWYQQKPGKAPKLLIYDASNLETGVPSRFSGSGSGTDFTFTISSLQPEDIATYYCQHFDHLPLAFGQGTKVEIKSESATPESGPGTSPGATPESGPGTSESATPQVQLQESGPGLVKPSETLSLTCTVSGGSVSSGDYYWTWIRQPPGKGLEWIGHIYYSGNTNYNPSLKSRVTISVDTSKNQFSLKLSSVTAADTAVYYCARDRVTGAFDIWGQGTLVTVSSGGGGSELVVTQEPSLTVSPGGTVTLTCRSSNGAVTSSNYANWVQQKPGQAPRGLIGGTNKRAPGTPARFSGSLLEGKAALTLSGVQPEDEAVYYCALWYPNLWVFGGGTKLTVLSESATPESGPGTSPGATPESGPGTSESATPEVQLVESGGGIVQPGGSLRLSCAASGFTFSTYAMNWVRQAPGKGLEWVGRIRTKRNDYATYYADSVKGRFTISRDDSKNTLYLQMNSLKTEDTAVYYCVRHENFGNSYVSWFAHWGQGTLVTVSSGTATPESGPG
notes: Singly masked metabolite; that the N-terminal mask is the one kept is read from the label only; not shown: remnant of cleaved RSR-3213
As to B1, the Kd came to 0.25 nM in test [1], 36 nM in test [2] and 47 nM in test [3].

B2: AMX-525 (1x-C) (bispecific antibody)
chain: GTSESATPESDIQMTQSPSSLSASVGDRVTITCQASQDISNYLNWYQQKPGKAPKLLIYDASNLETGVPSRFSGSGSGTDFTFTISSLQPEDIATYYCQHFDHLPLAFGQGTKVEIKSESATPESGPGTSPGATPESGPGTSESATPQVQLQESGPGLVKPSETLSLTCTVSGGSVSSGDYYWTWIRQPPGKGLEWIGHIYYSGNTNYNPSLKSRVTISVDTSKNQFSLKLSSVTAADTAVYYCARDRVTGAFDIWGQGTLVTVSSGGGGSELVVTQEPSLTVSPGGTVTLTCRSSNGAVTSSNYANWVQQKPGQAPRGLIGGTNKRAPGTPARFSGSLLEGKAALTLSGVQPEDEAVYYCALWYPNLWVFGGGTKLTVLSESATPESGPGTSPGATPESGPGTSESATPEVQLVESGGGIVQPGGSLRLSCAASGFTFSTYAMNWVRQAPGKGLEWVGRIRTKRNDYATYYADSVKGRFTISRDDSKNTLYLQMNSLKTEDTAVYYCVRHENFGNSYVSWFAHWGQGTLVTVSSGTATPESGPGEAGRSASHTPAGLTGPATPESGPGTSESATPESGPGSPAGSPTSTEEGTSESATPESGPGSEPATSGSETPGTSESATPESGPGTSTEPSEGSAPGTSTEPSEGSAPGTSTEPSEGSAPGTSTEPSEGSAPGTSTEPSEGSAPGTSTEPSEGSAPGSPAGSPTSTEEGTSTEPSEGSAPGTSESATPESGPGSEPATSGSETPGTSESATPESGPGSEPATSGSETPGTSESATPESGPGTSTEPSEGSAPGTSESATPESGPGSPAGSPTSTEEGSPAGSPTSTEEGSPAGSPTSTEEGTSESATPESGPGTSTEPSEGSAPGTSESATPESGPGSEPATSGSETPGTSESATPESGPGSEPATSGSETPGTSESATPESGPGTSTEPSEGSAPGSPAGSPTSTEEGTSESATPESGPGSEPATSGSETPGTSESATPESGPGSPAGSPTSTEEGSPAGSPTSTEEGTSTEPSEGSAPGTSESATPESGPGTSESATPESGPGTSPSATPESGPGSEPATSGSETPGSEPATSGSETPGSPAGSPTSTEEGTSTEPSEGSAPGTSTEPSEGSAPGSEPATSGSETPGTSESAGEPEA
Take B2: in test [4], the Kd came out at 0.184 nM, the koff turned out to be 0.00036 s⁻¹ and the kon worked out at 2e+06 M⁻¹ s⁻¹. In test [1], binding was characterised by a dissociation constant (Kd) of 0.238 nM, the koff was determined as 0.00051 s⁻¹ and the kon is 2.12e+06 M⁻¹ s⁻¹.

B3: AC1955 (EGFR.2/CD3.9 paTCE) (bispecific antibody)
VL: DIQMTQSPSSLSASVGDRVTITCQASQDISNYLNWYQQKPGKAPKLLIYDASNLETGVPSRFSGSGSGTDFTFTISSLQPEDIATYFCQHFDHLPLAFGGGTKVEIK
VH: QVQLQESGPGLVKPSETLSLTCTVSGGSVSSGDYYWTWIRQSPGKGLEWIGHIYYSGNTNYNPSLKSRLTISIDTSKTQFSLKLSSVTAADTAIYYCVRDRVTGAFDIWGQGTMVTVSS
scFv: ELVVTQEPSLTVSPGGTVTLTCRSSTGAVTTSNYANWVQQKPGQAPRGLIGGTNKRAPGTPARFSGSLLGGKAALTLSGVQPEDEAEYYCALWYSNLWVFGGGTKLTVLGATPPETGAETESPGETTGGSAESEPPGEGEVQLLESGGGLVQPGGSLKLSCAASGFTFNTYAMNWVRQAPGKGLEWVARIRSKYNNYATYYADSVKDRFTISRDDSKNTAYLQMNNLKTEDTAVYYCVRHGNFGNSYVSWFAYWGQGTLVTVSS
notes: One polypeptide; also called EGFR-XPAT gen1; pJB0169
B3 came in with a Kd in test [5] of 0.72 nM.

B4: AMX-525 (bispecific antibody)
chain: ASSATPESGPGTSTEPSEGSAPGTSESATPESGPGSGPGTSESATPGTSESATPESGPGSEPATSGSETPGTSESATPESGPGTSTEPSEGSAPGSPAGSPTSTEEGTSESATPESGPGSEPATSGSETPGTSESATPESGPGSPAGSPTSTEEGSPAGSPTSTEEGTSTEPSEGSAPGTSESATPESGPGTSESATPESGPGTSESATPESGPGSEPATSGSETPGSEPATSGSETPGSPAGSPTSTEEGTSTEPSEGSAPGTSTEPSEGSAPGSEPATSGSETPGTSESATPEAGRSASHTPAGLTGPGTSESATPESDIQMTQSPSSLSASVGDRVTITCQASQDISNYLNWYQQKPGKAPKLLIYDASNLETGVPSRFSGSGSGTDFTFTISSLQPEDIATYYCQHFDHLPLAFGQGTKVEIKSESATPESGPGTSPGATPESGPGTSESATPQVQLQESGPGLVKPSETLSLTCTVSGGSVSSGDYYWTWIRQPPGKGLEWIGHIYYSGNTNYNPSLKSRVTISVDTSKNQFSLKLSSVTAADTAVYYCARDRVTGAFDIWGQGTLVTVSSGGGGSELVVTQEPSLTVSPGGTVTLTCRSSNGAVTSSNYANWVQQKPGQAPRGLIGGTNKRAPGTPARFSGSLLEGKAALTLSGVQPEDEAVYYCALWYPNLWVFGGGTKLTVLSESATPESGPGTSPGATPESGPGTSESATPEVQLVESGGGIVQPGGSLRLSCAASGFTFSTYAMNWVRQAPGKGLEWVGRIRTKRNDYATYYADSVKGRFTISRDDSKNTLYLQMNSLKTEDTAVYYCVRHENFGNSYVSWFAHWGQGTLVTVSSGTATPESGPGEAGRSASHTPAGLTGPATPESGPGTSESATPESGPGSPAGSPTSTEEGTSESATPESGPGSEPATSGSETPGTSESATPESGPGTSTEPSEGSAPGTSTEPSEGSAPGTSTEPSEGSAPGTSTEPSEGSAPGTSTEPSEGSAPGTSTEPSEGSAPGSPAGSPTSTEEGTSTEPSEGSAPGTSESATPESGPGSEPATSGSETPGTSESATPESGPGSEPATSGSETPGTSESATPESGPGTSTEPSEGSAPGTSESATPESGPGSPAGSPTSTEEGSPAGSPTSTEEGSPAGSPTSTEEGTSESATPESGPGTSTEPSEGSAPGTSESATPESGPGSEPATSGSETPGTSESATPESGPGSEPATSGSETPGTSESATPESGPGTSTEPSEGSAPGSPAGSPTSTEEGTSESATPESGPGSEPATSGSETPGTSESATPESGPGSPAGSPTSTEEGSPAGSPTSTEEGTSTEPSEGSAPGTSESATPESGPGTSESATPESGPGTSPSATPESGPGSEPATSGSETPGSEPATSGSETPGSPAGSPTSTEEGTSTEPSEGSAPGTSTEPSEGSAPGSEPATSGSETPGTSESAGEPEA
notes: Fully masked paTCE; also called AC4230; EGFR.37/CD3.318 paTCE
For the molecule B4, the Kd worked out at 0.736 nM in test [4], 1.05 nM in test [1], 57 nM in test [2] and 167 nM in test [3]. The koff in test [4] was determined as 0.00077 s⁻¹; in test [1], 0.001 s⁻¹; in test [2], 0.18 s⁻¹; in test [3], 0.18 s⁻¹. The kon was 1.04e+06 M⁻¹ s⁻¹ in test [4], 910000 M⁻¹ s⁻¹ in test [1], 3.1e+06 M⁻¹ s⁻¹ in test [2] and 1.1e+06 M⁻¹ s⁻¹ in test [3].

B5: AC3860 (CD3.356) (scFv, V domains shown)
VH: EVQLVESGGGIVQPGGSLRLSCAASGFTFSTYAMNWVRQAPGKGLEWVGRIRTKTNDYATYYADSVKGRFTISRDDSKNTAYLQMNSLKTEDTAVYYCVRHENFGNSYVSWFAHWGQGTLVTVSS
VL: ELVVTQEPSLTVSPGGTVTLTCRSSNGAVTSSNYANWVQQKPGQAPRGLIGGTNKRAPGTPARFSGSALGGKAALTLSGVQPEDEAVYYCALWYPNLWVFGGGTKLTVL
notes: Pool 3 format (remarks)
On to B5, for which the Kd turned out to be 29.4 nM in test [6] and 19.7 nM in test [7].

B6: AC3881 (CD3.377) (scFv, V domains shown)
VH: B5 VH with T55R, D57N, Y61T, A81V
VL: B5 VL with A68L
notes: Pool 3 format (remarks)
In the case of B6, the Kd came to 10.7 nM in test [6] and 10.4 nM in test [7].
